Source: patent publication US20230235027A1

How the values were obtained:
F490L (SARS-CoV-2) = test: kinetic measurement, method not stated; table row F490L
K417N (SARS-CoV-2) = test: kinetic measurement, method not stated; table row K417N
A475V (SARS-CoV-2) = test: kinetic measurement, method not stated; table row A475V
N439K (SARS-CoV-2) = test: kinetic measurement, method not stated; table row N439K
N501Y (SARS-CoV-2) = test: kinetic measurement, method not stated; table row N501Y
L452R (SARS-CoV-2) = test: kinetic measurement, method not stated; table row L452R
B.1.351 (Gamma) = test: kinetic measurement, method not stated; table row B.1.351 (Gamma)
E484K (SARS-CoV-2) = test: kinetic measurement, method not stated; table row E484K

Chain of NIH-CoVnb-112 (VHH) (VHH): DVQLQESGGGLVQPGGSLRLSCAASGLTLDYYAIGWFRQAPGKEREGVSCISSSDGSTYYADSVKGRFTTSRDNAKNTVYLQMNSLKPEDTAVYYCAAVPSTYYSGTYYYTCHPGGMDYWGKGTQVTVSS

For NIH-CoVnb-112 (VHH), the koff (F490L (SARS-CoV-2)) was 0.000926 s⁻¹, the kon (F490L (SARS-CoV-2)) was 158000 M⁻¹ s⁻¹ and the koff (K417N (SARS-CoV-2)) was 0.000157 s⁻¹. The kon (K417N (SARS-CoV-2)) was 120000 M⁻¹ s⁻¹, the koff (A475V (SARS-CoV-2)) was 0.000209 s⁻¹ and the kon (A475V (SARS-CoV-2)) was 169000 M⁻¹ s⁻¹. The koff (N439K (SARS-CoV-2)) was 0.000302 s⁻¹, the kon (N439K (SARS-CoV-2)) was 189000 M⁻¹ s⁻¹ and the koff (N501Y (SARS-CoV-2)) was 0.000428 s⁻¹. For the same substance, the kon (N501Y (SARS-CoV-2)) was 153000 M⁻¹ s⁻¹, the koff (L452R (SARS-CoV-2)) was 0.00127 s⁻¹ and the kon (L452R (SARS-CoV-2)) was 209000 M⁻¹ s⁻¹. The koff (B.1.351 (Gamma)) was 0.000705 s⁻¹, the kon (B.1.351 (Gamma)) was 201000 M⁻¹ s⁻¹ and the koff (E484K (SARS-CoV-2)) was 0.000304 s⁻¹. The kon (E484K (SARS-CoV-2)) was 256000 M⁻¹ s⁻¹.
